This passage reports protein stability index results from the supplement of paper PMC9732359.

± gives the uncertainty stated by the source.

The data set is described as follows: protein stability index of a GFP-peptide fusion (yeast GPS) (PSI 1-4); higher = more stable; sorted into four equal gates, so the index is relative within each strain. The method in brief: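 Yeast carrying a pooled library were grown to mid-log phase in leucine-free medium. Each library plasmid expresses Cherry and has a tiled 17-residue yeast protein peptide fused downstream of GFP. Cells were sorted into four equal gates by GFP/Cherry ratio, and plasmids from each gate were PCR-amplified, Illumina-sequenced and assigned to strains by barcode. Summing, across gates, the read frequency times the gate number gave each peptide's protein stability index.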

Regarding ARIFEFPKTTVAALRFT [RPL18A], the protein stability index is, setting by setting: (doa10∆) 1.94 ± 0.11; (pdr5∆) 1.67 ± 0.076; (san1∆) 2 ± 0.19; (ubr1∆) 1.79 ± 0.098.
Regarding ARIKDAFITQLESSITD [YJL039C/NUP192], the protein stability index reads like this: (doa10∆) 2.83 ± 0.11; (pdr5∆) 2.25 ± 0.1; (san1∆) 1.14 ± 0.11.
ARSGLRIGRIEDVTPVP [RPS14A] gave a protein stability index (doa10∆) of 2.69 ± 0.11, a protein stability index (pdr5∆) of 2.91 ± 0.12, a protein stability index (san1∆) of 2.92 ± 0.097 and a protein stability index (ubr1∆) of 2.85 ± 0.072.
As to ARTATVSKKWAAAAVCE [RPL14A], the protein stability index by setting is: (doa10∆) 2.9 ± 0.089; (pdr5∆) 3.21 ± 0.084; (san1∆) 3.58 ± 0.11; (ubr1∆) 2.71 ± 0.066.
For the sequence ARVILYLKNVLFAFNGV [SIN4], the protein stability index (doa10∆) was found to be 2.38 ± 0.064, the protein stability index (pdr5∆) was determined as 1.57 ± 0.06, the protein stability index (san1∆) came out at 1.42 ± 0.077 and the protein stability index (ubr1∆) was determined as 1.38 ± 0.042.
The corresponding values for ARYNWICNPVHKHREAR [RPL15B] are 2.94 ± 0.083, 2.68 ± 0.088, 2.36 ± 0.11 and 3.04 ± 0.095.
As for ASDGGLYVPHSENRFPG [RPL5], the protein stability index is 2.19 ± 0.1 (doa10∆), 2.61 ± 0.079 (pdr5∆), 2.93 ± 0.095 (san1∆) and 2.92 ± 0.057 (ubr1∆).
As to ASINTSATVKTSDLLGS [ECM29], the protein stability index is 3.24 ± 0.24 (doa10∆), 2.96 ± 0.21 (pdr5∆) and 3.25 ± 0.21 (ubr1∆).
Consider ASMLGLFVFTEGWPKFQ [QCR10], for which the protein stability index by setting is: (doa10∆) 1.79 ± 0.1; (pdr5∆) 1.96 ± 0.099; (ubr1∆) 2.82 ± 0.2.
For the sequence ASSLRFGNSLSNTVNAN [YDL088C/ASM4], the protein stability index reads like this: (doa10∆) 2.81 ± 0.068; (pdr5∆) 2.78 ± 0.075; (san1∆) 2.65 ± 0.059; (ubr1∆) 2.89 ± 0.074.
As to ASSSPSSTDFSTCIVSL [ECM29], the protein stability index reads like this: (doa10∆) 2.81 ± 0.081; (pdr5∆) 2.26 ± 0.07; (san1∆) 2.01 ± 0.1; (ubr1∆) 1.84 ± 0.059.
For ASTINGASIIQVIFEIF [YML103C/NUP188], the protein stability index (doa10∆) amounted to 1.43 ± 0.059, the protein stability index (pdr5∆) came out at 1.9 ± 0.054, the protein stability index (san1∆) amounted to 1.95 ± 0.087 and the protein stability index (ubr1∆) amounted to 1.94 ± 0.046.
In turn, ASYSKYLIDHIKVDGAV [RPL22B] showed a protein stability index (doa10∆) of 2.92 ± 0.09, a protein stability index (pdr5∆) of 2.65 ± 0.11, a protein stability index (san1∆) of 2.62 ± 0.053 and a protein stability index (ubr1∆) of 2.83 ± 0.063.
ASYVNIPVIALTDLDSP [RPS0A]: the protein stability index is 1.92 ± 0.063 (doa10∆), 1.81 ± 0.064 (pdr5∆), 1.61 ± 0.17 (san1∆) and 1.88 ± 0.046 (ubr1∆).
As to ATANATANATANVNASA [DSN1], the protein stability index is 2.78 ± 0.043 (doa10∆), 3 ± 0.037 (pdr5∆), 3.17 ± 0.032 (san1∆) and 2.918 ± 0.025 (ubr1∆).
ATDEESVRLQRFYQLGV [CSN12] came in with a protein stability index (doa10∆) of 3.13 ± 0.16, a protein stability index (pdr5∆) of 3.13 ± 0.15, a protein stability index (san1∆) of 2.92 ± 0.11 and a protein stability index (ubr1∆) of 3.13 ± 0.099.
Regarding ATESIKNRRRIHGELKT [SMC1], the protein stability index by setting is: (doa10∆) 2.83 ± 0.17; (pdr5∆) 3.09 ± 0.12; (san1∆) 2.28 ± 0.26; (ubr1∆) 2.61 ± 0.14.
Take ATLKEIKSIIEQRKQKL [SMC3]: the protein stability index reads like this: (doa10∆) 2.89 ± 0.087; (pdr5∆) 3.16 ± 0.08; (san1∆) 3.16 ± 0.046; (ubr1∆) 3.04 ± 0.052.
In the case of ATNRPDTLDPALLRPGR [RPT4], the protein stability index runs as follows: (doa10∆) 2.91 ± 0.12; (pdr5∆) 3.18 ± 0.14; (san1∆) 2.89 ± 0.1; (ubr1∆) 3.1 ± 0.14.
For the sequence ATPPLKRFKDMEYLSGG [SMC1], the protein stability index is 2.93 ± 0.13 (doa10∆), 2.89 ± 0.09 (pdr5∆), 2.99 ± 0.047 (san1∆) and 3.01 ± 0.063 (ubr1∆).
With ATRHVLMRQGVLGIKVK [RPS3], the protein stability index reads like this: (doa10∆) 2.07 ± 0.096; (pdr5∆) 2.27 ± 0.073; (san1∆) 1.93 ± 0.095; (ubr1∆) 2.07 ± 0.056.
As for ATTGGGLFGNKPNNTAN [YGL172W/NUP49], the protein stability index (doa10∆) was 3.62 ± 0.25, the protein stability index (pdr5∆) is 3.29 ± 0.21, the protein stability index (san1∆) was 3.66 ± 0.083 and the protein stability index (ubr1∆) stood at 3.54 ± 0.18.
With AVAHHTDCKFIRVSGAE [RPT6], the protein stability index is, setting by setting: (doa10∆) 3.04 ± 0.13; (pdr5∆) 3.21 ± 0.16; (san1∆) 3.19 ± 0.14; (ubr1∆) 2.92 ± 0.11.
Consider AVAVVVDPIQSVKGKVV [RPN11], for which the protein stability index is 2.22 ± 0.1 (doa10∆), 2.64 ± 0.14 (pdr5∆), 2.29 ± 0.094 (san1∆) and 2.84 ± 0.18 (ubr1∆).
